Patent US6090911

B1: B1 basic leucine zipper protein (designed binder)
chain: MRGSHHHHHHGSMASGDLKNKVAQLKRKVRSLKDKAAELKQEVSRLENEIEDLKAKIGDLNNTSGIRRPAAKLN
B2: A1 acidic leucine zipper protein (designed binder)
chain: MRGSHHHHHHGSMASGDLENEVAQLEREVRSLEDEAAELEQKVSRLKNEIEDLKAEIGDLNNTSGIRRPAAKLN

What was measured:
[1] = target: T1, B1 basic leucine zipper protein; assay: urea denaturation followed by CD at 222 nm; difference in the free energies of unfolding at 50% unfolded
T1 sequence: B1 chain

[2] = target: T1, B1 basic leucine zipper protein; assay: urea denaturation followed by CD at 222 nm, two-state model; ΔGu from lnKd,u (dissociation of the dimers) extrapolated to zero denaturant
[3] = target: T1, B1 basic leucine zipper protein; assay: analytical ultracentrifugation of protein solutions (24 to 220 µM); self-association of B1 dimers to tetramers; 95% confidence limits printed as (1-6)
[4] = target: A1 acidic leucine zipper protein; assay: urea denaturation followed by CD at 222 nm; difference in the free energies of unfolding at 50% unfolded
[5] = target: T1, B1 basic leucine zipper protein; assay: urea denaturation of the equimolar mixture followed by CD at 222 nm; difference in the free energies of unfolding at 50% unfolded
[6] = target: A1 acidic leucine zipper protein; assay: urea denaturation followed by CD at 222 nm, two-state model; ΔGu from lnKd,u (dissociation of the dimers) extrapolated to zero denaturant
[7] = target: A1 acidic leucine zipper protein; assay: analytical ultracentrifugation of protein solutions (24 to 220 µM); self-association of A1 dimers to tetramers; 95% confidence limits printed as (50-112)
[8] = target: T1, B1 basic leucine zipper protein; assay: urea denaturation of the equimolar mixture followed by CD at 222 nm, two-state model; ΔGu from lnKd,u (dissociation of the dimers) extrapolated to zero denaturant

| Binder | ΔΔGu [1] [kcal/mol] | ΔGu [2] [kcal/mol] | Dimer-Tetramer Kd [3] [µM] | ΔΔGu [4] [kcal/mol] | ΔΔGu [5] [kcal/mol] | ΔGu [6] [kcal/mol] | Dimer-Tetramer Kd [7] [µM] | ΔGu [8] [kcal/mol] |
| --- | --- | --- | --- | --- | --- | --- | --- | --- |
| B1 | 0.13 | 12.6 | 123 |  |  |  |  |  |
| B2 |  |  |  | 0 | 2.75 | 11.5 | 76 | 13.8 |
